T1: human Trop-2 (on the surface of human cell lines) (human, UniProt P09758 27-323)
T1 sequence: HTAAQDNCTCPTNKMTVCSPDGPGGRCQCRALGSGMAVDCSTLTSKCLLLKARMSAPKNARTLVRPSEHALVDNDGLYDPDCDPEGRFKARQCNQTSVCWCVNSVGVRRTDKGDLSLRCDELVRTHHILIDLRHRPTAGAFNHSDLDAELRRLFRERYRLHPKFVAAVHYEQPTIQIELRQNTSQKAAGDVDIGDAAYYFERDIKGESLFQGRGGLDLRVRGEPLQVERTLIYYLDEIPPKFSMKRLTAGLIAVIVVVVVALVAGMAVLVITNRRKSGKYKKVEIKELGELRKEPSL

T2: human Trop-2-His (human, UniProt P09758 27-274, limits assumed)
T2 construct: by analogy with the macaque construct it is probably the extracellular domain with a His tag; also called Trop-2-His protein
T2 sequence: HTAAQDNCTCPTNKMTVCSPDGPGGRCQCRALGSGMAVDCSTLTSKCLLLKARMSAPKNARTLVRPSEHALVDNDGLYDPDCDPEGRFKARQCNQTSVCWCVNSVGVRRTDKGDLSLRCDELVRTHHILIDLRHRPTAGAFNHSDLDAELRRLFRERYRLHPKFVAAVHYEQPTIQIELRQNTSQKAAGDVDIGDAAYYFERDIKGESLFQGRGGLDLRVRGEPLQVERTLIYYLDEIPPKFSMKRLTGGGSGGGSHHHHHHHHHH

T3: Macaque Trop-2-His (macaque, UniProt P09758 27-274 (human entry))
T3 construct: Extracellular domain of macaque Trop-2 recombinantly linked to His; also called monkey Trop-2-His protein; monkey Trop-2
T3 chain: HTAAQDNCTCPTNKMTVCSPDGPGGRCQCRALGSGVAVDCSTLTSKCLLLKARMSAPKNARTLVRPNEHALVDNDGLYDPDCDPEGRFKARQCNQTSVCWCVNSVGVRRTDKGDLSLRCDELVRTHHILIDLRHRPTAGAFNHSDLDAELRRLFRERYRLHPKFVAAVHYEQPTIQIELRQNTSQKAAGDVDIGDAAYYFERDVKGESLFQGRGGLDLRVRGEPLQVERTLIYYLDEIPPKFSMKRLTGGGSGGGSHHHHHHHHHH


Columns and labels:
[1] = molecular target: T1, human Trop-2 (on the surface of human …); assay: cell-based or functional assay
[2] = molecular target: T1, human Trop-2 (on the surface of human …); assay: cell-based or functional assay; remark: listed apart in the source
[3] = molecular target: T1, human Trop-2 (on the surface of human …); assay: flow cytometry, HCC38 cells
Procedure: (§1) Tumor cells expressing Trop-2 were prepared into a cell suspension (0.5-1×10⁶ cells/mL) using the FACS buffer (Miltenyi Biotec, 130-091-221), and the cell suspension was added to a 96-well V-bottom plate at 100 μL/well. After centrifugation and removal of the supernatant, the test antibodies diluted with the FACS buffer to different concentrations (0.006 nM-100 nM) were each added at 50 μL/well. The mixture was incubated in the dark in a 4° C. refrigerator for 1 h. The plate was then washed 3 times with the FACS buffer by centrifugation at 300 g, and Alexa Fluor 488 goat anti-human IgG (H+L) (Bio-legend, 409304, 1:500 dilution) at working concentration was added. The mixture was incubated in the dark in a 4° C. refrigerator for 40 min. The plate was then washed 3 times with the FACS buffer by centrifugation at 300 g, the geometric mean fluorescence intensity (MFI) was measured on a Sartorius iQue3 flow cytometer, and the binding EC₅₀ values of the antibodies for tumor cells with different Trop-2 expression levels were calculated

[4] = molecular target: T1, human Trop-2 (on the surface of human …); assay: flow cytometry, HCC1806 cells
Procedure: as §1

human Trop-2-His [5] = molecular target: T2, human Trop-2-His; assay: ELISA, plate-coated human Trop-2-His
Procedure: (§2) After the liquid was discarded, 2% BSA (SIGMA, B2064-100G) diluted with PBS was added at 300 μL/well for blocking, and the mixture was incubated at 37° C. for 2 h. After the blocking was completed, the blocking buffer was discarded, the plate was washed 3 times with PBST buffer (pH 7.4 PBS containing 0.1% tween-20), the antibody solution diluted in a gradient was added at 100 μL/well, and the mixture was incubated at 37° C. for 1 h. After the incubation was completed, the plate was washed 3 times with PBST, the goat anti-human IgG (H+L) (JacksonImmunoResearch, 109-035-098, 1:5000 dilution) was added at 100 μL/well, and the mixture was incubated at 37° C. for 1 h. After the plate was washed 3 times with PBST, a TMB chromogenic substrate (TIANGEN, PA107-01) was added at 100 μL/well. The mixture was incubated at room temperature for 10-15 min, and then 1 M H₂SO₄ was added at 50 μL/well to terminate the reaction. The absorbance values at 450 nm were taken using a microplate reader. The binding curves of antibodies for antigen were fitted using software, and the EC₅₀ values were calculated.

Macaque Trop-2-His = molecular target: T3, Macaque Trop-2-His; assay: ELISA, plate-coated macaque Trop-2-His
Procedure: as §2, with “times with the PBST buffer” for “times with PBST buffer”

human Trop-2-His [6] = molecular target: T2, human Trop-2-His; assay: SPR (Biacore 8K), antibody captured, Trop-2-His as analyte
From the text: The affinity of antibodies for human Trop-2-His was detected in the form of antibody capturing. The antibody was affinity-captured by a CM5 (Cat. #29149603, GE) biosensor chip conjugated with an anti-human IgG antibody (from human antibody capture kit, Cat. #29234600, GE), then the antigen human Trop-2-His flowed on the surface of the chip, and a Biacore 8K instrument was used for detecting reaction signals in real time to obtain association and dissociation curves. After dissociation was completed for each assay cycle, the chip was washed clean and regenerated with a regeneration buffer, 3M MgCl₂ (from human antibody capture kit, Cat. #29234600, GE). The association and dissociation curves were collected by Biacore 8K Control Software 3.0 in real time, and the data were analyzed by Biacore Insight Evaluation Software 3.0. The data were fitted using a Langmuir 1:1 model after double subtraction (namely, in each cycle, the contrast channel signal was subtracted from the experimental channel signal, and the sample signal was subtracted from the blank signal), and the association rate constant Ka, the dissociation rate constant Kd, and the equilibrium constant KD were calculated.

ADCC reporter (Jurkat-CD16a v158-NFAT-luciferase), target cell H322, EC50 [1] [nM]	ADCC reporter (Jurkat-CD16a v158-NFAT-luciferase), target cell HCC1806, EC50 [1] [nM]	EC50 [3] [nM]	EC50 [4] [nM]	EC50 (human Trop-2-His [5]) [nM]	EC50 (Macaque Trop-2-His) [nM]	Kd (human Trop-2-His [6]) [nM]	koff (human Trop-2-His [6]) [s⁻¹]	kon (human Trop-2-His [6]) [M⁻¹ s⁻¹]	Binder	ADCC, PBMC killing (LDH), H322, EC50 [2] [nM]	ADCC, PBMC killing (LDH), H322, Maximum killing (%) [2] [%]	ADCC, PBMC killing (LDH), HCC1806, EC50 [2] [nM]	ADCC, PBMC killing (LDH), HCC1806, Maximum killing (%) [2] [%]
0.17	0.2	0.59	0.78	0.085	0.048				ch-Ab2 (antibody, human IgG1, kappa, V domains shown, also called chimeric antibody of Ab2) VH: EVQLVESGPGLVAPSQSLSITCTVSGFSLTYYGIDWVRQPPGKGLEWLGVIWGSGNTKYNSALMSRLSISKDNSKSQVFLRMNSLQSDDTAIYYCARFYEGFAYWGQGTLVTVSA VL: AIVLTQSPSSMYASLGERVTITCKASQDINSYLSWFQQKPGKSPKTLIYRANRLVDGVPSRFSGSGSGQDYSLTISSLEYEDMGIYYCLQYDEFPLTFGVGTKLELKR	0.01	48.1	0.02	40
1.45	4.1			0.082	0.133	47.8	0.0029	60600	hz-Ab2-1.1 (antibody, human IgG1, kappa, V domains shown, Humanized antibody) VH: EVQLVESGGGLIQPGGSLRLSCAVSGFSLTYYGIDWVRQPPGKGLEWVSVIWGSGNTKYNSALKSRLTISRDNSKSTLYLQMNSLRAEDTAVYYCARFYEGFAYWGQGTLVTVSS VL: DIQMTQSPSSLSASVGDRVTITCKASQDINSYLSWFQQKPGKAPKTLIYRANRLVEGVPSRFSGSGSGQDYTLTISSLQPEDFATYYCLQYDEFPLTFGQGTKVEIKR	0.13	47.8	0.46	32.9
0.17	0.33	0.65	1.22	0.081	0.068	16.5	0.0165	1e+06	hz-Ab2-1.3 (antibody, human IgG1, kappa, V domains shown, Humanized antibody) VH: QVQLQESGPGLVKPSETLSLTCTVSGFSLTYYGIDWIRQPPGKGLEWIGVIWGSGNTKYNSALKSRVTISKDNSKSQFSLKLSSVTAADTAVYYCARFYEGFAYWGQGTLVTVSS VL: DIQMTQSPSSLSASVGDRVTITCKASQDINSYLSWFQQKPGKAPKTLIYRANRLVEGVPSRFSGSGSGQDYTLTISSLQPEDFATYYCLQYDEFPLTFGQGTKVEIKR	0.02	48.1	0.06	37
0.31	0.42	0.76	0.9	0.076	0.064	1.43	0.00508	3.56e+06	hz-Ab2-1.2 (antibody, human IgG1, kappa, V domains shown, Humanized antibody) VH: EVQLVESGPGLIQPGGSLRLSCAVSGFSLTYYGIDWVRQPPGKGLEWVGVIWGSGNTKYNYALKSRLTISKDNSKSTLYLQMNSLRAEDTAVYYCARFYEGFAYWGQGTLVTVSS VL: DIQMTQSPSSLSASVGDRVTITCKASQDINSYLSWFQQKPGKAPKTLIYRANRLVEGVPSRFSGSGSGQDYTLTISSLQPEDFATYYCLQYDEFPLTFGQGTKVEIKR	0.01	48.4	0.03	36.6
				0.359	0.83	2.72	0.000643	237000	hz-Ab2-2.3 (antibody, human IgG1, kappa, V domains shown, Humanized antibody) VH: QVQLQESGPGLVKPSETLSLTCTVSGFSLTYYGIDWIRQPPGKGLEWIGVIWGSGNTKYNSALKSRVTISKDNSKSQFSLKLSSVTAADTAVYYCARFYEGFAYWGQGTLVTVSS VL: DIQMTQSPSSLSASVGDRVTITCRASQDINSYLSWFQQKPGKAPKTLIYRANRLVEGVPSRFSGSGSGQDFTLTISSLQPEDFATYYCLQYDEYPLTFGQGTKVEIKR				
				0.218	0.341	2.41	0.00059	245000	hz-Ab2-2.2 (antibody, human IgG1, kappa, V domains shown, Humanized antibody) VH: EVQLVESGPGLIQPGGSLRLSCAVSGFSLTYYGIDWVRQPPGKGLEWVGVIWGSGNTKYNYALKSRLTISKDNSKSTLYLQMNSLRAEDTAVYYCARFYEGFAYWGQGTLVTVSS VL: DIQMTQSPSSLSASVGDRVTITCRASQDINSYLSWFQQKPGKAPKTLIYRANRLVEGVPSRFSGSGSGQDFTLTISSLQPEDFATYYCLQYDEYPLTFGQGTKVEIKR				
				1.08	1.19	0.686	0.00023	336000	hz-Ab2-2.1 (antibody, human IgG1, kappa, V domains shown, Humanized antibody) VH: EVQLVESGGGLIQPGGSLRLSCAVSGFSLTYYGIDWVRQPPGKGLEWVSVIWGSGNTKYNSALKSRLTISRDNSKSTLYLQMNSLRAEDTAVYYCARFYEGFAYWGQGTLVTVSS VL: DIQMTQSPSSLSASVGDRVTITCRASQDINSYLSWFQQKPGKAPKTLIYRANRLVEGVPSRFSGSGSGQDFTLTISSLQPEDFATYYCLQYDEYPLTFGQGTKVEIKR				

Source: patent US20250034275A1 (CHIA TAI TIANQING PHARMACEUTICAL GROUP, published 2025)
